Assay [1] concerns the target MTCL1 CC1 fragment purified from E. coli (mouse). Kind of assay: cross-linking; purified CC1 fragment (0.52 mg/ml) in PBS, 30 min at 25°C with DST (0.1, 0.3 and 0.9 mg/ml); stopped with 50 mM Tris-HCl pH 7.5.
The target is the same in assay [2]. The assay can be described thus: SDS-PAGE without heat pretreatment; purified tag-free CC1 fragment in SDS sample buffer with 2% SDS, with or without heat treatment (100°C, 10 min); CBB staining.

As for “MTCL1 CC1 fragment purified from E. coli (domain or fragment)”, the stoichiometry N in assay [1] and in assay [2] was 2 throughout.

What is called stoichiometry N is the number of molecules, sites or subunits per partner or assembly.

The record behind these values is article PMC5546597.
